The values that follow come from patent US20240294593A1 (Genentech, published 2024).

First the molecules themselves.
B1: mAb C H1.19_L1 (antibody, name in Kabat numbering, V domains shown)
VH: EVQLVESGGGLVQPGGSLRLSCAASGFTFSSLGMHWVRQAPGKGLEWVSYISSGSSIIYYADSVKGRFTISRDNAKNSLYLQMNSLRAEDTAVYYCARGGRLVWSPDYWGQGTLVTVSS
VL: DIVMTQSPDSLAVSLGERATINCKSSQSLLNSGNQKNYLTWYQQKPGQPPKLLIYWASTRESGVPDRFTGSGSGTDFTLTISSLQAEDVAVYYCQNDYSYPFTFGSGTKLEIK
B2: H1.114_L1 (antibody, V domains shown)
VH: EVQLVESGGGLVQPGGSLRLSCAASGFTFSSFGMHWVRQAPGKGLEWVSYISSGSSIIYYADSVKGRFTISRDNAKNSLYLQMNSLRAEDTAVYYCARYGRLVWSPDYWGQGTLVTVSS
VL: DIVMTQSPDSLAVSLGERATINCKSSQSLLNSGNQKNYLTWYQQKPGQPPKLLIYWASTRESGVPDRFTGSGSGTDFTLTISSLQAEDVAVYYCQNDYSYPFTFGSGTKLEIKR
notes: also called VH-G103Y; Kabat 95
B3: H1.116_L1 (antibody, V domains shown)
VH: EVQLVESGGGLVQPGGSLRLSCAASGFTFSSFGMHWVRQAPGKGLEWVSYISSGSSIIYYADSVKGRFTISRDNAKNSLYLQMNSLRAEDTAVYYCARGSRLVWSPDYWGQGTLVTVSS
VL: DIVMTQSPDSLAVSLGERATINCKSSQSLLNSGNQKNYLTWYQQKPGQPPKLLIYWASTRESGVPDRFTGSGSGTDFTLTISSLQAEDVAVYYCQNDYSYPFTFGSGTKLEIKR
notes: also called VH-G108S; Kabat 96
B4: H1.123_L1 (antibody, V domains shown)
VH: EVQLVESGGGLVQPGGSLRLSCAASGFTFSSFGMHWVRQAPGKGLEWVSYISSGSSIIYYADSVKGRFTISRDNAKNSLYLQMNSLRAEDTAVYYCARGYRLVWSPDYWGQGTLVTVSS
VL: DIVMTQSPDSLAVSLGERATINCKSSQSLLNSGNQKNYLTWYQQKPGQPPKLLIYWASTRESGVPDRFTGSGSGTDFTLTISSLQAEDVAVYYCQNDYSYPFTFGSGTKLEIKR
notes: also called VH-G108Y; Kabat 96
B5: H1.130_L1 (antibody, human IgG1, kappa, V domains shown)
VH: EVQLVESGGGLVQPGGSLRLSCAASGFTFSSFGMHWVRQAPGKGLEWVSYISSGSSIIYYADSVKGRFTISRDNAKNSLYLQMNSLRAEDTAVYYCARGGYLVWSPDYWGQGTLVTVSS
VL: DIVMTQSPDSLAVSLGERATINCKSSQSLLNSGNQKNYLTWYQQKPGQPPKLLIYWASTRESGVPDRFTGSGSGTDFTLTISSLQAEDVAVYYCQNDYSYPFTFGSGTKLEIKR
notes: also called VH-R109Y; Kabat 97; copies: 2 + 2
B6: H1.127_L1 (antibody, V domains shown)
VH: EVQLVESGGGLVQPGGSLRLSCAASGFTFSSFGMHWVRQAPGKGLEWVSYISSGSSIIYYADSVKGRFTISRDNAKNSLYLQMNSLRAEDTAVYYCARGGHLVWSPDYWGQGTLVTVSS
VL: DIVMTQSPDSLAVSLGERATINCKSSQSLLNSGNQKNYLTWYQQKPGQPPKLLIYWASTRESGVPDRFTGSGSGTDFTLTISSLQAEDVAVYYCQNDYSYPFTFGSGTKLEIKR
notes: also called VH-R109H; Kabat 97
B7: H1.129_L1 (antibody, V domains shown)
VH: EVQLVESGGGLVQPGGSLRLSCAASGFTFSSFGMHWVRQAPGKGLEWVSYISSGSSIIYYADSVKGRFTISRDNAKNSLYLQMNSLRAEDTAVYYCARGGGLVWSPDYWGQGTLVTVSS
VL: DIVMTQSPDSLAVSLGERATINCKSSQSLLNSGNQKNYLTWYQQKPGQPPKLLIYWASTRESGVPDRFTGSGSGTDFTLTISSLQAEDVAVYYCQNDYSYPFTFGSGTKLEIKR
notes: also called VH-R109G; Kabat 97
B8: H1.119_L1 (antibody, V domains shown)
VH: EVQLVESGGGLVQPGGSLRLSCAASGFTFSSFGMHWVRQAPGKGLEWVSYISSGSSIIYYADSVKGRFTISRDNAKNSLYLQMNSLRAEDTAVYYCARGHRLVWSPDYWGQGTLVTVSS
VL: DIVMTQSPDSLAVSLGERATINCKSSQSLLNSGNQKNYLTWYQQKPGQPPKLLIYWASTRESGVPDRFTGSGSGTDFTLTISSLQAEDVAVYYCQNDYSYPFTFGSGTKLEIKR
notes: also called VH-G108H; Kabat 96
B9: H1.133_L1 (antibody, V domains shown)
VH: EVQLVESGGGLVQPGGSLRLSCAASGFTFSSFGMHWVRQAPGKGLEWVSYISSGSSIIYYADSVKGRFTISRDNAKNSLYLQMNSLRAEDTAVYYCARGGRIVWSPDYWGQGTLVTVSS
VL: DIVMTQSPDSLAVSLGERATINCKSSQSLLNSGNQKNYLTWYQQKPGQPPKLLIYWASTRESGVPDRFTGSGSGTDFTLTISSLQAEDVAVYYCQNDYSYPFTFGSGTKLEIKR
notes: also called VH-L110I; Kabat 98
B10: H1.125_L1 (antibody, human IgG1, kappa, V domains shown)
VH: EVQLVESGGGLVQPGGSLRLSCAASGFTFSSFGMHWVRQAPGKGLEWVSYISSGSSIIYYADSVKGRFTISRDNAKNSLYLQMNSLRAEDTAVYYCARGGELVWSPDYWGQGTLVTVSS
VL: DIVMTQSPDSLAVSLGERATINCKSSQSLLNSGNQKNYLTWYQQKPGQPPKLLIYWASTRESGVPDRFTGSGSGTDFTLTISSLQAEDVAVYYCQNDYSYPFTFGSGTKLEIKR
notes: also called VH-R109E; Kabat 97; copies: 2 + 2
B11: H1.131_L1 (antibody, V domains shown)
VH: EVQLVESGGGLVQPGGSLRLSCAASGFTFSSFGMHWVRQAPGKGLEWVSYISSGSSIIYYADSVKGRFTISRDNAKNSLYLQMNSLRAEDTAVYYCARGGILVWSPDYWGQGTLVTVSS
VL: DIVMTQSPDSLAVSLGERATINCKSSQSLLNSGNQKNYLTWYQQKPGQPPKLLIYWASTRESGVPDRFTGSGSGTDFTLTISSLQAEDVAVYYCQNDYSYPFTFGSGTKLEIKR
notes: also called VH-R109I; Kabat 97
B12: H1.118_L1 (antibody, V domains shown)
VH: EVQLVESGGGLVQPGGSLRLSCAASGFTFSSFGMHWVRQAPGKGLEWVSYISSGSSIIYYADSVKGRFTISRDNAKNSLYLQMNSLRAEDTAVYYCARGQRLVWSPDYWGQGTLVTVSS
VL: DIVMTQSPDSLAVSLGERATINCKSSQSLLNSGNQKNYLTWYQQKPGQPPKLLIYWASTRESGVPDRFTGSGSGTDFTLTISSLQAEDVAVYYCQNDYSYPFTFGSGTKLEIKR
notes: also called VH-G108Q; Kabat 96
B13: H1.126_L1 (antibody, V domains shown)
VH: EVQLVESGGGLVQPGGSLRLSCAASGFTFSSFGMHWVRQAPGKGLEWVSYISSGSSIIYYADSVKGRFTISRDNAKNSLYLQMNSLRAEDTAVYYCARGGDLVWSPDYWGQGTLVTVSS
VL: DIVMTQSPDSLAVSLGERATINCKSSQSLLNSGNQKNYLTWYQQKPGQPPKLLIYWASTRESGVPDRFTGSGSGTDFTLTISSLQAEDVAVYYCQNDYSYPFTFGSGTKLEIKR
notes: also called VH-R109D; Kabat 97
B14: H1.117_L1 (antibody, V domains shown)
VH: EVQLVESGGGLVQPGGSLRLSCAASGFTFSSFGMHWVRQAPGKGLEWVSYISSGSSIIYYADSVKGRFTISRDNAKNSLYLQMNSLRAEDTAVYYCARGTRLVWSPDYWGQGTLVTVSS
VL: DIVMTQSPDSLAVSLGERATINCKSSQSLLNSGNQKNYLTWYQQKPGQPPKLLIYWASTRESGVPDRFTGSGSGTDFTLTISSLQAEDVAVYYCQNDYSYPFTFGSGTKLEIKR
notes: also called VH-G108T; Kabat 96
B15: H1.124_L1 (antibody, V domains shown)
VH: EVQLVESGGGLVQPGGSLRLSCAASGFTFSSFGMHWVRQAPGKGLEWVSYISSGSSIIYYADSVKGRFTISRDNAKNSLYLQMNSLRAEDTAVYYCARGGKLVWSPDYWGQGTLVTVSS
VL: DIVMTQSPDSLAVSLGERATINCKSSQSLLNSGNQKNYLTWYQQKPGQPPKLLIYWASTRESGVPDRFTGSGSGTDFTLTISSLQAEDVAVYYCQNDYSYPFTFGSGTKLEIKR
notes: also called VH-R109K; Kabat 97
B16: H1.128_L1 (antibody, V domains shown)
VH: EVQLVESGGGLVQPGGSLRLSCAASGFTFSSFGMHWVRQAPGKGLEWVSYISSGSSIIYYADSVKGRFTISRDNAKNSLYLQMNSLRAEDTAVYYCARGGSLVWSPDYWGQGTLVTVSS
VL: DIVMTQSPDSLAVSLGERATINCKSSQSLLNSGNQKNYLTWYQQKPGQPPKLLIYWASTRESGVPDRFTGSGSGTDFTLTISSLQAEDVAVYYCQNDYSYPFTFGSGTKLEIKR
notes: also called VH-R109S; Kabat 97
B17: H1.134_L1 (antibody, V domains shown)
VH: EVQLVESGGGLVQPGGSLRLSCAASGFTFSSFGMHWVRQAPGKGLEWVSYISSGSSIIYYADSVKGRFTISRDNAKNSLYLQMNSLRAEDTAVYYCARGGRFVWSPDYWGQGTLVTVSS
VL: DIVMTQSPDSLAVSLGERATINCKSSQSLLNSGNQKNYLTWYQQKPGQPPKLLIYWASTRESGVPDRFTGSGSGTDFTLTISSLQAEDVAVYYCQNDYSYPFTFGSGTKLEIKR
notes: also called VH-L110F; Kabat 98
B18: H1.115_L1 (antibody, V domains shown)
VH: EVQLVESGGGLVQPGGSLRLSCAASGFTFSSFGMHWVRQAPGKGLEWVSYISSGSSIIYYADSVKGRFTISRDNAKNSLYLQMNSLRAEDTAVYYCARGARLVWSPDYWGQGTLVTVSS
VL: DIVMTQSPDSLAVSLGERATINCKSSQSLLNSGNQKNYLTWYQQKPGQPPKLLIYWASTRESGVPDRFTGSGSGTDFTLTISSLQAEDVAVYYCQNDYSYPFTFGSGTKLEIKR
notes: also called VH-G108A; Kabat 96

The target in one experiment is T1, human PD-1-His (human, UniProt Q15116 25-167, limits assumed).
T1 construct: Antigen of the Octet assays; not shown: His tag
T1 sequence (Q15116 25-167 limits assumed): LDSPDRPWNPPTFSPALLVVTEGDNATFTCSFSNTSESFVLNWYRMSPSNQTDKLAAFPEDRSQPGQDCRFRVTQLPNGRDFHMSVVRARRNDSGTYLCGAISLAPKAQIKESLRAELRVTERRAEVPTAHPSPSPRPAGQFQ
The experiment can be described thus: Octet. For orientation: Biolayer interferometry detects binding as a change in optical thickness at a sensor tip.
As usually defined, the Kd is a measure of binding affinity in units of concentration. For orientation: koff means a measure of how fast the partners let go of each other. A higher koff goes with fast dissociation. Broadly, the kon is the rate constant with which the complex forms. The low end stands for slow association, the high end for fast association. Regarding B1, the Kd is 16.7 nM, the dissociation rate constant (koff) turned out to be 0.00217 s⁻¹ and the kon came out at 130000 M⁻¹ s⁻¹.

The target of the next experiment is T1, human PD-1-His. The experiment can be described thus: Octet. This is another data set of the same source.
Consider B2, for which binding was put at a Kd of 592 nM, the koff amounted to 0.0875 s⁻¹ and the kon came out at 148000 M⁻¹ s⁻¹.
Taken in the same sequence, the figures for B3 were 183 nM, 0.0347 s⁻¹ and 190000 M⁻¹ s⁻¹.
Taken in the same sequence, the figures for B4 were 350 nM, 0.0538 s⁻¹ and 154000 M⁻¹ s⁻¹.
Molecule B5 had a dissociation constant (Kd) of 22.1 nM, a koff of 0.00505 s⁻¹ and a kon of 228000 M⁻¹ s⁻¹.
In the case of B6, the affinity, expressed as Kd, was 30.8 nM; the koff is 0.00578 s⁻¹; the kon amounted to 188000 M⁻¹ s⁻¹.
In turn, B7 yielded a Kd of 43.2 nM, a koff of 0.00719 s⁻¹ and a kon of 167000 M⁻¹ s⁻¹.
The matching figures for B8: 186 nM, 0.0376 s⁻¹ and 202000 M⁻¹ s⁻¹.
Taken in the same sequence, the figures for B9 were 49.5 nM, 0.00753 s⁻¹ and 152000 M⁻¹ s⁻¹.
B10 had a Kd of 18.7 nM, a koff of 0.0052 s⁻¹ and a kon of 278000 M⁻¹ s⁻¹.
The matching figures for B11: 43.5 nM, 0.00878 s⁻¹ and 202000 M⁻¹ s⁻¹.
Taken in the same sequence, the figures for B12 were 192 nM, 0.0316 s⁻¹ and 164000 M⁻¹ s⁻¹.
The matching figures for B13: 43.1 nM, 0.0109 s⁻¹ and 254000 M⁻¹ s⁻¹.
Molecule B14 displayed a dissociation constant (Kd) of 121 nM, a koff of 0.0105 s⁻¹ and a kon of 86900 M⁻¹ s⁻¹.
Taken in the same sequence, the figures for B15 were 48.8 nM, 0.00674 s⁻¹ and 138000 M⁻¹ s⁻¹.
Taken in the same sequence, the figures for B16 were 32.8 nM, 0.00608 s⁻¹ and 186000 M⁻¹ s⁻¹.
As to B17, the affinity, expressed as Kd, was 60.8 nM; the dissociation rate constant (koff) was determined as 0.0088 s⁻¹; the kon turned out to be 145000 M⁻¹ s⁻¹.
On to B18, for which the Kd amounted to 76.7 nM, the koff was determined as 0.0116 s⁻¹ and the kon was 151000 M⁻¹ s⁻¹.
